± gives the standard deviation of the averaged measurements.
Test system: Saccharomyces cerevisiae
Test: protein stability index of tFT-peptide fusion (C-terminal peptide) (PSI (0-1 scale)); higher = more stable (slower turnover)
Conditions: genetic background: wild type; temperature: 30 C
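Further: PSI is a weighted mean of sequencing reads over stability bins, variants kept only with over 10 reads, mCherry proximal and sfGFP distal, peptide attached via GGGS linker.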

Sequence | protein stability index
VFGRQVRVNGGS | 0.707 ± 0.043
VFAGLHSLCFFF | 0.641 ± 0.023
LGPRMYKRRDLR | 0.724 ± 0.023
YYLAVGNRIASR | 0.688 ± 0.043
NVLVRFFSSGVW | 0.85 ± 0.047
FGVLGCGFLLSL | 0.688 ± 0.018
RGCRLRCSLPGR | 0.669 ± 0.056
LGSSGVVGYHLD | 0.71 ± 0.054
RFAGLRDVGCFL | 0.695 ± 0.034
RRGLHWQAVCRY | 0.733 ± 0.023
FSLYSFSSSFSF | 0.677 ± 0.033
PLSASPLPPFSR | 0.734 ± 0.11
VCGWGFLLGVFV | 0.5107 ± 0.0022
VVGPVLTCAVRF | 0.617 ± 0.076
GVAGWGTVVGAQ | 0.712 ± 0.07
RVIVRGREIEIV | 0.6782 ± 0.0018
GGPGGGRPGPRA | 0.6972 ± 0.0026
GGVGRGGIRVMG | 0.629 ± 0.062
KVRSFGGLFVKG | 0.68 ± 0.022
SRLGFPFTGGGR | 0.6597 ± 0.0062
DGYYRIVRPEAI | 0.626 ± 0.018
KKKKTKKSKQKK | 0.721 ± 0.0089
RAARGGRSGTRV | 0.643 ± 0.097
LHRCRPPCSIHL | 0.816 ± 0.036
GSGELYMGRLVE | 0.676 ± 0.047
PPPLFLSPFPPR | 0.727 ± 0.015

Sequence | protein stability index
GIPYGWLLCFPR | 0.813 ± 0.021
EVSRCRTVPVWL | 0.662 ± 0.07
DLLWASLCLRSY | 0.679 ± 0.021
GEGFLRVGLADV | 0.761 ± 0.09
DVILVSLPPPSV | 0.676 ± 0.049
PHPGVPPTFLSL | 0.657 ± 0.11
IHEGIKNENFKR | 0.71 ± 0.0053
THKGAPTCRSAR | 0.6723 ± 0.0037
VGKTVKQLSLIS | 0.597 ± 0.039
GPRVLCNCHLRD | 0.688 ± 0.0083
PRVLVVSAVNTV | 0.695 ± 0.02
GFAALLSSLFFL | 0.683 ± 0.061
CLLAAMTFYTVR | 0.711 ± 0.029
VSCLPFLDLMSW | 0.701 ± 0.012
GWHVGCGCTVFR | 0.671 ± 0.061
RLDGVTPVRTCL | 0.661 ± 0.054
CNGVGRLPGTPG | 0.685 ± 0.0086
QRVWGFRSVFVR | 0.532 ± 0.035
PPLPSPLCPQPP | 0.714 ± 0.032
VGGGWGGGVVLV | 0.696 ± 0.0071
PTAPVLRPPASP | 0.7 ± 0.011
RNIQKKKKIQHI | 0.514 ± 0.047
GLCRRLDRQLAN | 0.6787 ± 0.0026
DSWGPGVSSRRW | 0.732 ± 0.044
TPKTTGRPCDRT | 0.69 ± 0.0098
GCRRGGGMERAQ | 0.649 ± 0.05

Sequence | protein stability index
FSFLFSFFFSFL | 0.55971 ± 7.1e-07
RALCISCYVALR | 0.5849 ± 0.00077
LLPFIPPPPCPP | 0.658 ± 0.02
NHRETNRNRGKL | 0.75295 ± 0.00072
RTPMAIDALCGS | 0.637 ± 0.045
GFLCGFVGVFAD | 0.56953 ± 0.00032
FLTCTTSLPFVP | 0.728 ± 0.13
PPIWYAKHRPAP | 0.6904 ± 0.0069
EESNEERDQEKT | 0.63 ± 0.0065
KIKESIKIKKKR | 0.6789 ± 0.0027
APPLPPSPPSAR | 0.729 ± 0.11
DKFEEENIKKKK | 0.74 ± 0.026
LLSPPFPPPAMV | 0.6948 ± 0.0017
LGLGSFPLMDLS | 0.738 ± 0.015
KGRQVDQALVRG | 0.634 ± 0.019
QITSHRVISRLV | 0.546 ± 0.037
GCGSVVVGVGGG | 0.652 ± 0.028
HLLLLSLVFFFW | 0.744 ± 0.017
SSLPRPSHSLSL | 0.617 ± 0.068
TTLATVLRTFPG | 0.724 ± 0.031
GVRCVQGTVTGR | 0.7 ± 0.099
PPPSPSPPPSSP | 0.698 ± 0.039
LSSADSVVSSVV | 0.696 ± 0.0093
SPQFLLPRALSP | 0.695 ± 0.0042
GLVGGLCIGRLV | 0.672 ± 0.024
GAGAVRPPARAS | 0.699 ± 0.059

Sequence | protein stability index
KEYKKKKKKIDK | 0.671 ± 0.022
RQKNKIATVVEE | 0.664 ± 0.026
SLLPRLTPHSPI | 0.75 ± 0.051
GGGKRGDMSVVV | 0.689 ± 0.0092
CTIAPSIFFTRG | 0.704 ± 0.11
CSYIQTSKTVVS | 0.756 ± 0.082
KTQKNQKLTRSK | 0.769 ± 0.12
VSTVFGCDICST | 0.701 ± 0.034
KKKREKKKENTK | 0.7108 ± 0.0067
SGGGGGWQEEAG | 0.662 ± 0.027
SAPFSPSLTHHP | 0.742 ± 0.14
GCFGLLVSSLFS | 0.7111 ± 0.0024
ALALCLVFFFSI | 0.574 ± 0.065
ISCFRLGFVRKI | 0.535 ± 0.0058
KKKKKKKKNMKR | 0.683 ± 0.024
PSPPPPSRLLPP | 0.689 ± 0.025
PTPRGTPCPDTM | 0.66 ± 0.065
AFFVAFLPLLSR | 0.552 ± 0.031
YSSLLPLSSPSG | 0.684 ± 0.04
ELKRVCVHRTER | 0.7 ± 0.025
RSVPLLNPGFHY | 0.663 ± 0.026
RKEQKGKGKEGG | 0.697 ± 0.024
KLKTKQNKERNK | 0.757 ± 0.076
SGGRRRAGKGAT | 0.69 ± 0.049
GGGGLFGCWVCG | 0.654 ± 0.011
DCDVLCGSGRRR | 0.703 ± 0.026

Sequence | protein stability index
AVQESVSHSLVL | 0.723 ± 0.0012
GGGWGGGGGVWG | 0.686 ± 0.047
ICSVHFLFFPLL | 0.573 ± 0.014
GISASYTASSSG | 0.642 ± 0.067
PVLYWHSYRLCR | 0.65 ± 0.008
PPPHSPVPPSQS | 0.68 ± 0.022
FLCSLAPHRPLL | 0.704 ± 0.033
INIQKKKKIQHI | 0.508 ± 0.031
GMDGRGGGGSVV | 0.723 ± 0.039
GTGSVHYHRSGL | 0.676 ± 0.016
RRNDRKKKSIRI | 0.684 ± 0.059
VGGCRLTRSSVW | 0.688 ± 0.011
KATNLNKVRRWE | 0.693 ± 0.048
GGWGGGGLGGAF | 0.741 ± 0.037
GVRGCGMTADVF | 0.668 ± 0.008
PPPPPPLPSLPR | 0.678 ± 0.089
FFRSFVVGSVLV | 0.567 ± 0.0064
VKGKLGSGSYIH | 0.644 ± 0.022
YWSAQGRVVCVL | 0.481 ± 0.07
LPPPRSPPLPRL | 0.802 ± 0.059
DRRTLSLDLCGS | 0.644 ± 0.045
RRADFSWPVVVE | 0.591 ± 0.022
GIGLSVGDVLGC | 0.73 ± 0.037
TVFPVLTTVEGL | 0.688 ± 0.03
LFPCPSMTLPRL | 0.706 ± 0.017
RVLDNYLTDYCL | 0.675 ± 0.061

Sequence | protein stability index
GKRTGRKKRRKR | 0.638 ± 0.095
EGLPGGLRGCLR | 0.687 ± 0.021
GRKTRSPFLVLM | 0.5707 ± 0.002
PPPPSLPTPRPP | 0.662 ± 0.012
FLLVCLNDVLRP | 0.588 ± 0.062
PPLMLPSTPSSS | 0.704 ± 0.095
WMTFTTAVTDGG | 0.656 ± 0.046
CDCIAFISRSFS | 0.675 ± 0.039
SATHLLADPAPG | 0.661 ± 0.088
RAIGREGILHRA | 0.693 ± 0.094
LWGRAVYETFQM | 0.67 ± 0.063
TFLPPTTSPYVL | 0.738 ± 0.052
ELNSGLLRSKET | 0.661 ± 0.0095
LGWLCWQFFGGT | 0.795 ± 0.14
PCAPPTPAPLHP | 0.6687 ± 0.0048
LELADGRCARSG | 0.8 ± 0.065
RSRTSKGGNFII | 0.6766 ± 0.0053
VVGAGDWRWGVW | 0.78884 ± 0.00041
VPPPRYLPAFPA | 0.694 ± 0.0078
FQPQPSPAHPSH | 0.693 ± 0.023
YQPLWTNTITGT | 0.799 ± 0.17
VGPGRRGWEGAP | 0.663 ± 0.022
GGGGPGLEARSL | 0.618 ± 0.0078
PPPTLYPPPFPP | 0.659 ± 0.027
PRPLPLPPLALP | 0.696 ± 0.027
GRVFRGRNGRCM | 0.7443 ± 0.0067

Sequence | protein stability index
LSAMVSYTRAPF | 0.67811 ± 0.00065
FPSSPPAHAAPH | 0.68 ± 0.019
NRDSPPAGEIHA | 0.648 ± 0.082
EKNDKEYKRSIS | 0.665 ± 0.06
FPSPPPGPHPSP | 0.76336 ± 0.00013
VGTVREVYCQGG | 0.678 ± 0.014
LASSVRSSASVP | 0.739 ± 0.034
FFPPPSSFCLSL | 0.772 ± 0.069
SEEGMGRCSDEE | 0.731 ± 0.028
RRGEKKDEKGGR | 0.67 ± 0.062
FVFDVTAYRGLL | 0.738 ± 0.03
FFFPLLLLSPPI | 0.535 ± 0.015
INSEKKKDRNKL | 0.779 ± 0.02
CFSCLWVPLLPS | 0.649 ± 0.008
KKKKKKKKTNKE | 0.656 ± 0.11
HMLVCPLAALGI | 0.6884 ± 0.0031
FSKSRLRNLKLK | 0.655 ± 0.016
QRRGAPTPPACL | 0.748 ± 0.011
RSPLNTAPLRNR | 0.682 ± 0.025
KFLQRTPGHSSE | 0.699 ± 0.048
LSPLRPPAPSVF | 0.646 ± 0.038
LPHYLAFPFFMI | 0.499 ± 0.08
SRLPPHSPVHAS | 0.787 ± 0.042
GLVVCDGGGVGC | 0.684 ± 0.14
DIISSKENWVEI | 0.68 ± 0.059
IPGDTLSTTTVT | 0.67 ± 0.05

Sequence | protein stability index
PPDSPSPLPPPP | 0.681 ± 0.054
GPDSSYLITPRR | 0.755 ± 0.065
RQSLEDSLLHQH | 0.774 ± 0.081
APSLPPRLPWLY | 0.737 ± 0.015
LTPMDVPDPLPH | 0.757 ± 0.14
VLLLLYGMFRGR | 0.59 ± 0.0094
GGGRGDWALRGG | 0.751 ± 0.011
WARLVSSSLAAT | 0.61763 ± 0.00038
PLSLSVPPAFFI | 0.538 ± 0.14
EDMRGATGRGAG | 0.669 ± 0.028
EGREGQRHRRVI | 0.669 ± 0.01
TPSPPTLHPPPP | 0.691 ± 0.023
PRDLRVVRLTSA | 0.63 ± 0.022
QLYGHNRRNQGL | 0.611 ± 0.046
IPSHSVLCLSIY | 0.497 ± 0.042
TRLLPQRPLGGV | 0.717 ± 0.046
PLSPLALLPLRF | 0.694 ± 0.065
LFPSVCSTSSFS | 0.676 ± 0.034
VRVRGDPLVCPL | 0.592 ± 0.0096
KNIIEKKIKKRK | 0.711 ± 0.0049

— the supplement of paper PMC10724198
